# Laboratory results as given in the supplement of paper PMC10724198.
# ± gives the standard deviation of the averaged measurements.
# System: Saccharomyces cerevisiae
# Experiment: protein stability index of tFT-peptide fusion (C-terminal peptide) (PSI (0-1 scale)); higher = more stable (slower turnover)
# Settings: genetic background: wild type; temperature: 30 C
# Experimental: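 MPS profiling in S. cerevisiae of the tFT-X12 degron library: putative degron peptides plus stable controls, 12 aa, fused to the C-terminus of a sfGFP-mCherry timer. Cells are FACS-sorted into 8 mCherry/sfGFP bins and deep-sequenced. PSI runs from 0 (unstable) to 1 (stable). Backgrounds are wild type, das1Δ and doa10Δ at 30 °C, and wild type, das1Δ, cdc34-1 and cdc53-1 at 37 °C; 2-3 technical replicates each.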
# 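Note: PSI is a weighted mean of sequencing reads over stability bins, variants kept only with over 10 reads, mCherry proximal and sfGFP distal, peptide attached via GGGS linker.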
row,Sequence,protein stability index
1,TLWWRQPFWGFG,0.702 ± 0.013
2,TSRRPFVLVMWL,0.388 ± 0.035
3,TTATLSFAICAV,0.325 ± 0.022
4,TYKHIVRVNKCE,0.184 ± 0.025
5,TYSVIPSLALLP,0.652 ± 0.032
6,VAGGFWCWGMVG,0.436 ± 0.024
7,VARWVYALGLLC,0.221 ± 0.011
8,VCCSILFSAFLV,0.4 ± 0.012
9,VCDPWVFIRCLV,0.118 ± 0.032
10,VCLVAGVFFCLL,0.449 ± 0.014
11,VCVAVCFVMCGG,0.305 ± 0.0087
12,VCVWVDILAFCS,0.174 ± 0.019
13,VDVWRWRGLRVG,0.414 ± 0.031
14,VFAWSLYLRWAW,0.357 ± 0.017
15,VFFFNALFCFFC,0.291 ± 0.011
16,VFFSLSLILFPF,0.402 ± 0.019
17,VFFVLAVVGADA,0.306 ± 0.02
18,VFLFSLLIVFFP,0.216 ± 0.028
19,VFLLLSLSVFFE,0.128 ± 0.043
20,VFSFGLLFQVCR,0.452 ± 0.025
21,VFSGVTTILVRT,0.392 ± 0.018
22,VFSLFLVLNYPF,0.362 ± 0.012
23,VGGLGWCWVCMA,0.158 ± 0.023
24,VGIFKVCALVLR,0.335 ± 0.016
25,VGVSCVVCVCGV,0.295 ± 0.017
26,VGVVVAIGLVRM,0.377 ± 0.03

row,Sequence,protein stability index
1,VICSLFRYIMRL,0.132 ± 0.0062
2,VIFFEFFLSFGE,0.32 ± 0.025
3,VIRIRLSCSVDV,0.322 ± 0.021
4,VISVFAISTRVD,0.414 ± 0.018
5,VIVQSWEIIRLN,0.105 ± 0.026
6,VKVKMKIIIIIK,0.281 ± 0.087
7,VLGFRPLVFLCF,0.304 ± 0.013
8,VLRACCDWGFLV,0.108 ± 0.03
9,VLRLLARRHAMV,0.145 ± 0.028
10,VMLFYVGSGVVS,0.556 ± 0.02
11,VPGCLGRFLFFL,0.218 ± 0.029
12,VRFGYGRIVWDI,0.496 ± 0.032
13,VRGLGFRWVWGW,0.668 ± 0.013
14,VRHPVVVVRRVI,0.411 ± 0.025
15,VRRFNVLLYVRG,0.321 ± 0.019
16,VRTFAVSCLCVC,0.133 ± 0.013
17,VSFFCLICRVYP,0.313 ± 0.012
18,VSIRVVVWVSWG,0.143 ± 0.02
19,VSLHVFVFLLAS,0.239 ± 0.027
20,VSLIYKTIKNRV,0.397 ± 0.015
21,VSLSEVAIIVHG,0.426 ± 0.022
22,VSWWRGVYVVLF,0.357 ± 0.018
23,VTEGMKEVIKQI,0.402 ± 0.038
24,VVDIFLFFLFVC,0.145 ± 0.0086
25,VVFVFIDLGLCV,0.223 ± 0.018
26,VVFVRLGWMRAC,0.0972 ± 0.021

row,Sequence,protein stability index
1,VVGILVLASWDL,0.225 ± 0.029
2,VVLWTFLLEVSA,0.0755 ± 0.033
3,VVLWVVCWGCWK,0.205 ± 0.029
4,VVSLAVVGRFLV,0.147 ± 0.018
5,VVVFRWTCWLLV,0.0385 ± 0.011
6,VWSCILPMVYVW,0.158 ± 0.0067
7,VWWWGAVGWLMV,0.416 ± 0.018
8,WCVRRVRFVMGC,0.234 ± 0.027
9,WFLVFLRVGDGP,0.378 ± 0.023
10,WKNIHGVFVFVM,0.284 ± 0.03
11,WLCLGLVVGLFL,0.362 ± 0.017
12,WLCWVVWFPGLF,0.171 ± 0.012
13,WLFFVVLPVKAF,0.131 ± 0.026
14,WLLSFLRFLVLR,0.298 ± 0.026
15,WLVCAGWVVLSC,0.175 ± 0.026
16,WLYPVFKISYCV,0.33 ± 0.021
17,WNIVKHREDMLS,0.621 ± 0.027
18,WSLPPLLSPLYF,0.672 ± 0.012
19,WVCCFVWGCLIR,0.233 ± 0.019
20,WVLSRAAFVFFF,0.337 ± 0.022
21,WVVLVCGFVLLG,0.234 ± 0.019
22,YAFSTCTILIRF,0.222 ± 0.018
23,YFTNCYRSILTF,0.355 ± 0.031
24,YGWILQLPCFVI,0.245 ± 0.023
25,YHDKLRAIEKFF,0.219 ± 0.04
26,YLCFVVSCGVLR,0.313 ± 0.017

# Same assay, conditions: genetic background: wild type; temperature: 37 C
row,Sequence,protein stability index
1,TLWWRQPFWGFG,0.781 ± 0.017
2,TSRRPFVLVMWL,0.576 ± 0.027
3,TTATLSFAICAV,0.452 ± 0.014
4,TYKHIVRVNKCE,0.286 ± 0.0033
5,TYSVIPSLALLP,0.704 ± 0.022
6,VAGGFWCWGMVG,0.677 ± 0.024
7,VARWVYALGLLC,0.377 ± 0.013
8,VCCSILFSAFLV,0.549 ± 0.013
9,VCDPWVFIRCLV,0.104 ± 0.018
10,VCLVAGVFFCLL,0.575 ± 0.013
11,VCVAVCFVMCGG,0.464 ± 0.03
12,VCVWVDILAFCS,0.252 ± 0.018
13,VDVWRWRGLRVG,0.599 ± 0.0082
14,VFAWSLYLRWAW,0.384 ± 0.0076
15,VFFFNALFCFFC,0.356 ± 0.0075
16,VFFSLSLILFPF,0.4897 ± 0.0017
17,VFFVLAVVGADA,0.467 ± 0.053
18,VFLFSLLIVFFP,0.3338 ± 0.0025
19,VFLLLSLSVFFE,0.142 ± 0.018
20,VFSFGLLFQVCR,0.631 ± 0.053
21,VFSGVTTILVRT,0.538 ± 0.0096
22,VFSLFLVLNYPF,0.432 ± 0.025
23,VGGLGWCWVCMA,0.246 ± 0.0056
24,VGIFKVCALVLR,0.446 ± 0.011
25,VGVSCVVCVCGV,0.4873 ± 0.0037
26,VGVVVAIGLVRM,0.512 ± 0.019

row,Sequence,protein stability index
1,VICSLFRYIMRL,0.134 ± 0.043
2,VIFFEFFLSFGE,0.433 ± 0.0069
3,VIRIRLSCSVDV,0.387 ± 0.013
4,VISVFAISTRVD,0.513 ± 0.066
5,VIVQSWEIIRLN,0.122 ± 0.0068
6,VKVKMKIIIIIK,0.432 ± 0.012
7,VLGFRPLVFLCF,0.392 ± 0.0027
8,VLRACCDWGFLV,0.163 ± 0.024
9,VLRLLARRHAMV,0.251 ± 0.02
10,VMLFYVGSGVVS,0.671 ± 0.014
11,VPGCLGRFLFFL,0.413 ± 0.029
12,VRFGYGRIVWDI,0.68 ± 0.016
13,VRGLGFRWVWGW,0.772 ± 0.018
14,VRHPVVVVRRVI,0.576 ± 0.0099
15,VRRFNVLLYVRG,0.523 ± 0.012
16,VRTFAVSCLCVC,0.128 ± 0.0014
17,VSFFCLICRVYP,0.417 ± 0.039
18,VSIRVVVWVSWG,0.223 ± 0.013
19,VSLHVFVFLLAS,0.378 ± 0.0044
20,VSLIYKTIKNRV,0.6009 ± 0.001
21,VSLSEVAIIVHG,0.5739 ± 0.0012
22,VSWWRGVYVVLF,0.526 ± 0.023
23,VTEGMKEVIKQI,0.6073 ± 0.0042
24,VVDIFLFFLFVC,0.216 ± 0.048
25,VVFVFIDLGLCV,0.4359 ± 0.0027
26,VVFVRLGWMRAC,0.112 ± 0.0058

row,Sequence,protein stability index
1,VVGILVLASWDL,0.373 ± 0.017
2,VVLWTFLLEVSA,0.101 ± 0.014
3,VVLWVVCWGCWK,0.421 ± 0.021
4,VVSLAVVGRFLV,0.263 ± 0.03
5,VVVFRWTCWLLV,0.06333 ± 0.00029
6,VWSCILPMVYVW,0.157 ± 0.011
7,VWWWGAVGWLMV,0.547 ± 0.01
8,WCVRRVRFVMGC,0.378 ± 0.013
9,WFLVFLRVGDGP,0.545 ± 0.016
10,WKNIHGVFVFVM,0.445 ± 0.0072
11,WLCLGLVVGLFL,0.47 ± 0.015
12,WLCWVVWFPGLF,0.297 ± 0.015
13,WLFFVVLPVKAF,0.154 ± 0.001
14,WLLSFLRFLVLR,0.32 ± 0.021
15,WLVCAGWVVLSC,0.222 ± 0.016
16,WLYPVFKISYCV,0.464 ± 0.017
17,WNIVKHREDMLS,0.7213 ± 0.0053
18,WSLPPLLSPLYF,0.7198 ± 0.0018
19,WVCCFVWGCLIR,0.303 ± 0.0074
20,WVLSRAAFVFFF,0.5201 ± 0.0035
21,WVVLVCGFVLLG,0.361 ± 0.012
22,YAFSTCTILIRF,0.3071 ± 0.0018
23,YFTNCYRSILTF,0.48177 ± 0.00025
24,YGWILQLPCFVI,0.315 ± 0.027
25,YHDKLRAIEKFF,0.49 ± 0.0052
26,YLCFVVSCGVLR,0.5035 ± 0.0016
